Patent publication US20080182978A1, “ANTI-NGF ANTIBODIES AND METHODS USING SAME” (RINAT NEUROSCIENCE CORP, priority 2002, published 2008)

B1: E3: humanized, affinity matured anti-NGF antagonist antibody; variable regions SEQ ID NO:1 and 2; human IgG2a (A330P331 to S330S331), kappa (antibody, V domains shown)
VH: QVQLQESGPGLVKPSETLSLTCTVSGFSLIGYDLNWIRQPPGKGLEWIGIIWGDGTTDYNSAVKSRVTISKDTSKNQFSLKLSSVTAADTAVYYCARGGYWYATSYYFDYWGQGTLVTVS
VL: DIQMTQSPSSLSASVGDRVTITCRASQSISNNLNWYQQKPGKAPKLLIYYTSRFHSGVPSRFSGSGSGTDFTFTISSLQPEDIATYYCQQEHTLPYTFGQGTKLEIKRT
modifications: human IgG2a constant (A330S/P331S) and kappa constant missing

Legend:
[1] = test system: complete Freund's adjuvant (CFA)-induced chronic arthritis; experiment: CFA arthritis rats, arthritis index (inflammation score); assay type: in vivo, rat; conditions: for change of arthritis index compared to vehicle-treated arthritic group: E3 1 mg/kg or 911 10 mg/kg i.v. D14+D19, indomethacin 3 mg/kg/day p.o.; for arthritis index (score): arthritic rats
Protocol: Five groups of 10 animals (5-weeks old male Lewis rats-LEWIS Lew/Ico, from Charles River Laboratories—Belgium) each were included in this study: Group 1: non arthritic rats/saline (vehicle), i.v. bolus, n=10; Group 2: arthritic rats/saline (vehicle), i.v. bolus, n=10; Group 3: arthritic rats/Indomethacin 3 mg/kg, p.o daily over 10 days, n=10; […]; Group 5: arthritic rats/911, 10 mg/kg, i.v. bolus, n=10. The doses were expressed in terms of free active substance (mg/kg). E3 and 911 were extemporaneously prepared in saline from the stock solution to the desired concentration. […]. All diluted solutions (before i.v. injection) were sterilized using a sterile filter unit of 0.20.μm. pH and osmolarity values of diluted solutions were measured before each i.v. injection. Before the first i.v., osmolarity (mosm/L) for saline, E3, and 911 were 278, 269, and 308 respectively; pH for saline, E3, and 911 were 5.93, 6.76, 6.71 respectively. Before the second i.v., osmolarity (mosm/L) for saline, E3, and 911 were 280, 270, and 309 respectively; pH for saline, E3, and 911 were 5.86, 6.72, and 6.59 respectively.
E3 or 911 or saline were administered by i.v. bolus injection on Day 14 and Day 19 after arthritis induction in a coded and random order with a volume of 5 mL/kg. The non arthritic group was given by i.v. bolus injection of saline on Day 14 and Day 19 with a volume of 5 mL/kg. Indomethacin was extemporaneously prepared in 1% methylcellulose. Indomethacin was administered by oral route (p.o.) once daily over 10 days from Day 14 to Day 23 after arthritis induction in a coded and random order with a volume of 10 mL/kg.
Arthritis index was evaluated using an inflammation score for each hind and forepaw (arthritic rats): Score 0: normal aspect; Score 1: erythema; Score 2: erythema with slight edema; Score 3: strong inflammation without ankylosis; Score 4: ankylosis. This evaluation was performed at the following times (after induction of arthritis): Day 14 (before i.v. bolus or p.o. administration); and Day 24 (5 days after the last i.v. bolus injection or 24 h after the last p.o. administration). All measurements were performed between 2:00 and 3:00 pm (D 14), 8:00 and 9:00 am (D 24). All the data were collected and stored by the WinDas software.
All results were reported as Mean ±S.E.M. of 10 rats in each group at each time point. Paw volume was expressed in ml calculated from the mean value of the right and left paw volume. Arthritis index was calculated from the sum of the score obtained for each of the 4 paws. The nociceptive response was evaluated by the intensity of the level of vocalization recorded for each animal (mean of 4 values: 2 times/paw) in mV. The percentage inhibition of the nociceptive response was calculated from the mean value of the vehicle-treated arthritic group [(mean value of vehicle-treated arthritic group−mean value of treated arthritic group/mean value of vehicle-treated arthritic group)*100]. Body weight was expressed in grams. Hindpaws (left and right) weight was expressed in grams. Cytokine levels (IL-6, IL-1β, TNF-α and TGF-β1) of each hind paw was expressed in pg/ml. Circulating levels of TGF-β1 was expressed in pg/ml. Radiological index for each parameter (demineralization, erosions, periostal reaction, soft tissue damage, space joint, osteogenesis deformity) and total radiological index (total score) were calculated from the sum of the scores obtained for each parameter. The inter-group significances of the deviations between the values of vehicle-treated group (arthritic rats) and vehicle-treated group (non arthritic rats) were assessed by the Student t test or Mann-Whitney Rank Sum Test when equal variance or normality test failed. The inter-group significances of the deviations between the values of vehicle-treated group (arthritic rats) and E3- and 911- and Indomethacin-treated groups were assessed by the 1-way analysis of variance ANOVA followed by the non-paired Dunnett t test. […]

TGF-β1 = experiment: CFA arthritis rats, circulating TGF-β1 in serum (ELISA); assay type: in vivo, rat; conditions: D24; for serum TGF-β1 level: arthritic rats, E3 1 mg/kg or 911 10 mg/kg i.v. D14+D19, indomethacin 3 mg/kg p.o.
Protocol: On Day 24 (after paw volume and arthritis index measurements and test vocalization), under general anaesthesia using isoflurane (in a mixture of oxygen and nitrous oxide), the blood samples (about 800-1000 μl) was collected by capillary action with a micropipette from retroorbital sinus.
Measurement of circulating TGF-β1 (groups 1-2-3-4-5): A part of blood sample was collected in micro tubes for serum preparation at ambient temperature. Following sample collection, blood was mixed and allowed to clot for 30 minutes prior to the centrifugation. The tubes were centrifuged at about 6000 g for 3 minutes. Each serum sample (at least 100 μL, except for rat #52 and #53) was aliquoted and stored at −20° C. until sample activation for TGF-β1 analysis. These aliquots (50 vials) were kept for a period of 6 months starting from the end of the study. […] TGF-β1 levels were measured using human TGF-β1 ELISA kit (ref. DB100, Batch 212258 and 213610, R&D Systems—France).
All results were reported as Mean ±S.E.M. of 10 rats in each group at each time point. Paw volume was expressed in ml calculated from the mean value of the right and left paw volume. Arthritis index was calculated from the sum of the score obtained for each of the 4 paws. The nociceptive response was evaluated by the intensity of the level of vocalization recorded for each animal (mean of 4 values: 2 times/paw) in mV. The percentage inhibition of the nociceptive response was calculated from the mean value of the vehicle-treated arthritic group [(mean value of vehicle-treated arthritic group−mean value of treated arthritic group/mean value of vehicle-treated arthritic group)*100]. […] Radiological index for each parameter (demineralization, erosions, periostal reaction, soft tissue damage, space joint, osteogenesis deformity) and total radiological index (total score) were calculated from the sum of the scores obtained for each parameter. […]

Molecule	change of arthritis index compared to vehicle-treated arthritic group ([1]; D24)	arthritis index (score) ([1]; D14 (before dosing))	serum TGF-β1 level (TGF-β1) [pg/mL]	decrease of serum TGF-β1 level compared to vehicle-treated arthritic group (TGF-β1; indomethacin 3 mg/kg/day p.o. 10 days)	anti-inflammatory effects in arthritis model (conclusion) ([1]; E3 1 mg/kg i.v., 911 10 mg/kg i.v., D14+D19)	arthritis index (score) ([1]; E3 1 mg/kg or 911 10 mg/kg i.v. D14+D19, indomethacin 3 mg/kg/day p.o. 10 days, D24)
COc1ccc2c(c1)c(CC(=O)O)c(C)n2C(=O)c1ccc(Cl)cc1 [Indomethacin, reference compound]	about −8.0	8.7±0.6	57222.2 ± 3194.1	about 1.5 times	–	–
B1	did not affect the arthritis index	10.2±0.4	69408.8 ± 3926.7	–	did not show significant anti-inflammatory effects	11.4±0.4
